According to publication PMC9119546, “MDM2 E3 ligase activity is essential for p53 regulation and cell cycle integrity” (PLoS Genetics, 2022):

Experiments:
[1] = molecular target: T1, HA-HDM2L468A (human, recombinant) (human, UniProt Q00987 1-491, L468A); assay: pull-down; 500 ng FLAG-MDM4 with 500 ng HA-HDM2 or HA-HDM2L468A in NP40 buffer (20 mM Tris-HCl pH 8.0, 150 mM NaCl, 0.5% NP40); anti-FLAG M2 beads, 1 hour at room temperature; eluted with 3xFLAG peptide; blot for HA; settings: both partners purified
T1 construct: human MDM2 (HDM2) with L468A; also called HA-HDM2LA; mutant HDM2 (HA-HDM2L468A); source: insect cell expression, purified as described previously [13]; not shown: HA, N-terminal, kept

[2] = molecular target: T2, HA-HDM2 (human, recombinant, wild type) (human, UniProt Q00987 1-491); assay: as above; settings: both partners purified
T2 construct: human MDM2 (HDM2); also called HA-HDM2 (WT); HA-MDM2 (human); source: insect cell expression, purified as described previously [13]; not shown: HA, N-terminal, kept
T2 sequence (Q00987 whole entry): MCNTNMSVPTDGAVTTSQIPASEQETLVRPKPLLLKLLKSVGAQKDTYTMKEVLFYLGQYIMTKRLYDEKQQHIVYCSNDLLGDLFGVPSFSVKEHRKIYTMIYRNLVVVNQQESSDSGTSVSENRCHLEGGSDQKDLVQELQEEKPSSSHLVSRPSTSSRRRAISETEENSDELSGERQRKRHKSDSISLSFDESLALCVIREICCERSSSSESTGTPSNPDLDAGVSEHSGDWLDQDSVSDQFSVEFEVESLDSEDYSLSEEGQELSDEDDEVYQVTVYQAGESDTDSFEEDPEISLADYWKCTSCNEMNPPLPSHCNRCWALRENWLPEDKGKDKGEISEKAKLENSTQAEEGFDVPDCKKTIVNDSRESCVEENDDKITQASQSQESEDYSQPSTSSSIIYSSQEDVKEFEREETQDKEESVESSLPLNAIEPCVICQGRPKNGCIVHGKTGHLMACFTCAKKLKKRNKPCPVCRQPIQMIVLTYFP

T1 sequence (Q00987 whole entry L468A): as the sequence (Q00987 whole entry) above, with L468A counted along it

binding result [1]: binds
binding result [2]: binds
B1: human recombinant FLAG-MDM4 (natural protein, UniProt O15151 1-490, looked up)
chain: MTSFSTSAQCSTSDSACRISPGQINQVRPKLPLLKILHAAGAQGEMFTVKEVMHYLGQYIMVKQLYDQQEQHMVYCGGDLLGELLGRQSFSVKDPSPLYDMLRKNLVTLATATTDAAQTLALAQDHSMDIPSQDQLKQSAEESSTSRKRTTEDDIPTLPTSEHKCIHSREDEDLIENLAQDETSRLDLGFEEWDVAGLPWWFLGNLRSNYTPRSNGSTDLQTNQDVGTAIVSDTTDDLWFLNESVSEQLGVGIKVEAADTEQTSEEVGKVSDKKVIEVGKNDDLEDSKSLSDDTDVEVTSEDEWQCTECKKFNSPSKRYCFRCWALRKDWYSDCSKLTHSLSTSDITAIPEKENEGNDVPDCRRTISAPVVRPKDAYIKKENSKLFDPCNSVEFLDLAHSSESQETISSMGEQLDNLSEQRTDTENMEDCQNLLKPCSLCEKRPRDGNIIHGRTGHLVTCFHCARRLKKAGASCPICKKEIQLVIKVFIA
notes: human MDM4 (HDM4); also called FLAG-M4; HDM4; source: insect cell expression, purified as described previously [13]; not shown: FLAG, N-terminal, kept
